In the test the target is α-synuclein (human, UniProt P37840 1-140). As to the kind of experiment: quartz crystal microbalance (QCM); α-synuclein (1 μM) immobilised by amine coupling; 2.5, 5, 10, 15, 20 nM AD(Cys) added; citrate buffer (pH 4.0); kon, koff from linear regression of kobs against concentration. The settings on record: both partners purified.

Here are results for one molecule from paper PMC6982183 (International Journal of Molecular Sciences, 2019).

As usually defined, the Kd is the equilibrium constant for the complex coming apart. Lower therefore signals higher affinity. The term koff denotes a measure of how fast the partners let go of each other. A low value points to a long-lived complex. The term kon denotes the rate constant with which the complex forms. A lower kon goes with slow association.

B1: Hsp60 AD(Cys), isolated apical domain of human Hsp60 with cysteines at the N- and C-termini (domain or fragment)
chain: CGMKFDRGYISPYFINTSKGQKCEFQDAYVLLSEKKISSIQSIVPALEIANAHRKPLVIIAEDVDGEALSTLVLNRLKVGLQVVAVKAPGFGDNRKNQLKDMAIATGGAVFGEEGLTLNLEDVQPHDLGKVGEVIVTKDDAMLLKGKGDKAQIEKRIQEIIEQLDVTTSEYEKEKLNERLAKLSDC
modifications: disulfide bond between the two engineered cysteines at the N- and C-termini
notes: Cysteine introduced at the N-terminus; the primer ACCATGTGCGGCATGAAATTCGATCGCGGTT encodes Met-Cys-GMKFDRG; Apical domain of human Hsp60; Cysteine introduced at the C-terminus of the domain, before the His6 tag; the primer AGTGATTGCCACCACCACCACCACCACTGA encodes SD-Cys-HHHHHH-stop; A start Met precedes the N-terminal Cys in the construct; Monomer by gel filtration; also called …
The molecule B1 displayed a dissociation constant (Kd) of 5.04 nM, a koff of 0.00295 s⁻¹ and a kon of 585000 M⁻¹ s⁻¹.
